Assay results published in EP0311108A2, “Anti-HIV active 3'-azido-2,6-diaminopurine-2',3'-dideoxyriboside” (Stichting REGA V.Z.W., priority 1987, dated 1989).

Key:
[1] = substrate: Nc1nc(N)c2ncn([C@@H]3O[C@H](CO)[C@@H](O)[C@@H]3O)c2n1; assay: purified protein, by the assay type; details: other: substrate of ADA
[2] = substrate: [N-]=[N+]=N[C@H]1C[C@H](n2cnc3c(N)nc(N)nc32)O[C@@H]1CO; assay: Deamination by adenosine deaminase (substrate kinetics); type: biochemical, beef; details: other: substrate of ADA
Excerpt: Several ddDAPR analogues were examined for their sus­ceptibility to deamination by beef intestine adenosine de­aminase (ADA).

B1: beef intestine adenosine deaminase (ADA) (Bos taurus) (protein)
chain: MAQTPAFNKPKVELHVHLDGAIKPETILYYGRKRGIALPADTPEELQNIIGMDKPLSLPEFLAKFDYYMPAIAGCREAVKRIAYEFVEMKAKDGVVYVEVRYSPHLLANSKVEPIPWNQAEGDLTPDEVVSLVNQGLQEGERDFGVKVRSILCCMRHQPSWSSEVVELCKKYREQTVVAIDLAGDETIEGSSLFPGHVKAYAEAVKSGVHRTVHAGEVGSANVVKEAVDTLKTERLGHGYHTLEDATLYNRLRQENMHFEVCPWSSYLTGAWKPDTEHPVVRFKNDQVNYSLNTDDPLIFKSTLDTDYQMTKNEMGFTEEEFKRLNINAAKSSFLPEDEKKELLDLLYKAYGMPSPASAEQCL
notes: Kinetic properties of beef intestine adenosine deaminase; from tissue; host or cells: beef intestine
In the case of B1, the Km [1] is reported as 83 µM, the Vmax [1] is reported as 5.9 µmole/mg protein/min and the Km [2] is reported as 11 µM. The Vmax [2] was 40 µmole/mg protein/min.
